Measured values published in patent publication KR20200059381A.

Columns and labels:
[1] = biological target: 구제역 바이러스 혈청형 O 배양액(cal1~cal4) (Foot-and-mouth disease virus serotype O); assay: sandwich ELISA, cal2, 1E58 coat 4 ug/ml, 1E58-HRP 0.2 ug/ml, 450 nm
[2] = biological target: 구제역 바이러스 혈청형 O 배양액(cal1~cal4) (Foot-and-mouth disease virus serotype O); assay: sandwich ELISA, cal2, 1E58 coat 1 ug/ml, 1E58-HRP 0.2 ug/ml, 450 nm
[3] = biological target: 구제역 바이러스 혈청형 O 배양액(cal1~cal4) (Foot-and-mouth disease virus serotype O); assay: sandwich ELISA, cal4, 1E58 coat 1 ug/ml, 1E58-HRP 0.8 ug/ml, 450 nm
[4] = biological target: 구제역 바이러스 혈청형 O 배양액(cal1~cal4) (Foot-and-mouth disease virus serotype O); assay: sandwich ELISA, cal3, 1E58 coat 4 ug/ml, 1E58-HRP 0.8 ug/ml, 450 nm
[5] = biological target: FMDV 혈청형 O 김제 (Foot-and-mouth disease virus serotype O); assay: sandwich ELISA, 1E58 coat 4 ug/ml, 1E58-HRP 0.3 ug/ml, virus culture fluid
[6] = biological target: FMDV 혈청형 A Iran05 (Foot-and-mouth disease virus serotype A); assay: as above
[7] = biological target: FMDV 혈청형 Asia1 MOG/05 (Foot-and-mouth disease virus serotype Asia1); assay: as above
[8] = biological target: FMDV 혈청형 SAT3 SAT3/ZIM/4/81 (Foot-and-mouth disease virus serotype SAT3); assay: as above
[9] = biological target: FMDV 혈청형 SAT2 SAT2/ZIM/5/81 (Foot-and-mouth disease virus serotype SAT2); assay: as above
[10] = biological target: FMDV 혈청형 O Yang-Ju (Foot-and-mouth disease virus serotype O); assay: as above
[11] = biological target: FMDV 혈청형 O O1 Manisa (Foot-and-mouth disease virus serotype O); assay: as above
[12] = biological target: FMDV 혈청형 Asia1 CAM/9/80 (Foot-and-mouth disease virus serotype Asia1); assay: as above
[13] = biological target: FMDV 혈청형 SAT1 SAT1/BOT/1/68 (Foot-and-mouth disease virus serotype SAT1); assay: as above
[14] = biological target: FMDV 혈청형 O Campos (Foot-and-mouth disease virus serotype O); assay: as above
[15] = biological target: FMDV 혈청형 A 포천주 (Foot-and-mouth disease virus serotype A); assay: as above
[16] = biological target: FMDV 혈청형 O Yunlin/Taiwan/97 (Foot-and-mouth disease virus serotype O); assay: as above
[17] = biological target: FMDV 혈청형 A 연천주 (Foot-and-mouth disease virus serotype A); assay: as above
[18] = biological target: FMDV 혈청형 C C3/Resende/BRA/55 (Foot-and-mouth disease virus serotype C); assay: as above
[19] = biological target: FMDV 혈청형 O Primorsky (Foot-and-mouth disease virus serotype O); assay: as above
[20] = biological target: FMDV 혈청형 O 정읍 (Foot-and-mouth disease virus serotype O); assay: as above
[21] = biological target: FMDV 혈청형 O 보은 1차 (Foot-and-mouth disease virus serotype O); assay: as above
[22] = biological target: FMDV 혈청형 A Malaysia97 (Foot-and-mouth disease virus serotype A); assay: as above
[23] = biological target: FMDV 혈청형 O O/Hapcheon/KOR/2014 (Foot-and-mouth disease virus serotype O); assay: as above
[24] = biological target: FMDV 혈청형 O 진천 (Foot-and-mouth disease virus serotype O); assay: as above
[25] = biological target: FMDV 혈청형 Asia1 Shamir (Foot-and-mouth disease virus serotype Asia1); assay: as above
[26] = biological target: FMDV 혈청형 A A22 Iraq (Foot-and-mouth disease virus serotype A); assay: as above
[27] = biological target: 구제역 바이러스 혈청형 O 배양액(cal1~cal4) (Foot-and-mouth disease virus serotype O); assay: sandwich ELISA, cal1, 1E58 coat 1 ug/ml, 1E58-HRP 0.2 ug/ml, 450 nm
[28] = biological target: 구제역 바이러스 혈청형 O 배양액(cal1~cal4) (Foot-and-mouth disease virus serotype O); assay: sandwich ELISA, cal4, 1E58 coat 8 ug/ml, 1E58-HRP 0.4 ug/ml, 450 nm
[29] = biological target: 구제역 바이러스 혈청형 O 배양액(cal1~cal4) (Foot-and-mouth disease virus serotype O); assay: sandwich ELISA, cal3, 1E58 coat 8 ug/ml, 1E58-HRP 0.8 ug/ml, 450 nm
[30] = biological target: 구제역 바이러스 혈청형 O 배양액(cal1~cal4) (Foot-and-mouth disease virus serotype O); assay: sandwich ELISA, cal1, 1E58 coat 4 ug/ml, 1E58-HRP 0.2 ug/ml, 450 nm

B1: 단클론항체 1E58 (antibody, V domains shown)
VH: EFQLQQSRPELAKPGASVKISCKTSGHTFTTYTMHWVKQSHVKSLEWIGCFNPNNGGATYNQKFKGKATLTMDKSSNTAYVEVRSLTSDDSAVYYCAYGNYVNFDYWGQGTTLTVSS
VL: DIVLTQSPASLAVSLGQRATISYRASKSVSTSGYSYMHWNQQKPGQPPRLLIYLVSNLESGVPARFSGSGSGTDFTLNIHPVEEEDAATYYCQHIRELTRSEGGPSWKN
O.D [1]: 2.09 O.D
O.D [2]: 1.06 O.D
O.D [3]: 1.07 O.D
O.D [4]: 2.65 O.D
O.D (450nm) [5]: 4 O.D
O.D (450nm) [6]: 4 O.D
O.D (450nm) [7]: 3.85 O.D
O.D (450nm) [8]: 3.6 O.D
O.D (450nm) [9]: 1.95 O.D
O.D (450nm) [10]: 4 O.D
O.D (450nm) [11]: 4 O.D
O.D (450nm) [12]: 4 O.D
O.D (450nm) [13]: 2.22 O.D
O.D (450nm) [14]: 3.96 O.D
O.D (450nm) [15]: 3.87 O.D
O.D (450nm) [16]: 4 O.D
O.D (450nm) [17]: 3.5 O.D
O.D (450nm) [18]: 3.75 O.D
O.D (450nm) [19]: 4 O.D
O.D (450nm) [20]: 3.86 O.D
O.D (450nm) [21]: 3.64 O.D
O.D (450nm) [22]: 4 O.D
O.D (450nm) [23]: 3.99 O.D
O.D (450nm) [24]: 4 O.D
O.D (450nm) [25]: 4 O.D
O.D (450nm) [26]: 3.79 O.D
O.D [27]: 1.81 O.D
O.D [28]: 0.39 O.D
O.D [29]: 1.31 O.D
O.D [30]: 3.47 O.D
